The record followed here is article PMC11040147.

Read-outs that look alike come from different tables or passages of the source.

Common to all, as to experiment: EMSA
The target in data set [1] is T1, SF3B4 (human? (HeLa cDNA), UniProt Q15427 1-424).
Data set [2] concerns the target T1, SF3B4. This is another data set of the same source.
Data set [3] has as its target T1, SF3B4. The source holds these as a separate data set.

T1 sequence (Q15427 whole entry): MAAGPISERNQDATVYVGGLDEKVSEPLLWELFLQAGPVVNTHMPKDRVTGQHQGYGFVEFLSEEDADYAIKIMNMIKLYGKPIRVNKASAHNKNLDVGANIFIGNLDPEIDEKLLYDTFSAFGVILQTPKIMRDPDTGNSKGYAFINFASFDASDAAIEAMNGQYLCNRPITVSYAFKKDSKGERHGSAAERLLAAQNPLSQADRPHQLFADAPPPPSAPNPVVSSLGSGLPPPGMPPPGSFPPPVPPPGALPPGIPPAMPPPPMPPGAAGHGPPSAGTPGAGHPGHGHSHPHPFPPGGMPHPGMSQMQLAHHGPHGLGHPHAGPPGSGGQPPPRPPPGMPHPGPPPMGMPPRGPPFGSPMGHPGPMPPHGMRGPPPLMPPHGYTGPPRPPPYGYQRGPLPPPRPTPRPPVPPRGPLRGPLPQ

Consider AGAGUGAAGUCUGAAGCGCUGAG (ssRNA) [PPP6R2-mut], for which the binding result with SF3B4 [1] is “no binding”.

As for GGTTAGGGTTAGGGTTAGGGTTAGGGTTAG (structured_DNA) [hTelo], in the data set with SF3B4 [2], the binding result is reported as “binds”.

For the molecule GGGAGGUGGGAGCCGAGGGUGGG (structured_RNA) [G4-INPPL1], in the data set with SF3B4 [3], the binding result is “binds”.
